Data reported in paper PMC5039624 (Scientific Reports, 2016).

B1: unnamed (parent)
chain 1: SECGKFMWKCKNSNDCCKDLVCSSRWKWCVLASPF
chain 2: RGLSDLGGRVRNIGDVMEHPLVELGVSYAALLSVIVVVVEYTMQLSGEYLVRLYLVDLILVIILWADYAYRAYKSGDPAGYVKKTLYEIPALVPAGLLALIEGHLAGLGLFRLVRLLRFLRILLIISRGSKFLSAIADAADK

Variants of: B1
Assay: pull-down
Design: reference not given here
Details: with partner chain of the complex shown; His6-tagged VSDK micelles immobilized on nickel-NTA beads; read off a plot

In order of rising screen value:
1. chain 2 RGLSDLGGRVRNIGDVMEHPLVELGVSYAALLSVIVVVVEYTMQLSGEYLVRLYLVDLILVIILAADYAYRAYKSGDPAGYVKKTLYEIPALVPAGLLALIEGHLAGLGLFRLVRLLRFLRILLIISRGSKFLSAIADAADK  -7%
2. chain 2 RGLSDLGGRVRNIGDVMEHPLVELGVSYAALLSVIVVVVEYAMQLSGEYLVRLYLVDLILVIILWADYAYRAYKSGDPAGYVKKTLYEIPALVPAGLLALIEGHLAGLGLFRLVRLLRFLRILLIISRGSKFLSAIADAADK  6%
3. chain 2 RGLSDLGGRVRNIGDVMEHPLVELGVSYAALLSVIVVVVEYTMQLSGEYLVRLYLVDLILVIILWADYAYRAYKSGDPAGYVKKTLYEIPALVPAGLLALIEGHLAGLGLFRLVALLRFLRILLIISRGSKFLSAIADAADK  7%
4. chain 2 RGLSDLGGRVRNIGDVMEHPLVELGVSYAALLSVIVVVVEATMQLSGEYLVRLYLVDLILVIILWADYAYRAYKSGDPAGYVKKTLYEIPALVPAGLLALIEGHLAGLGLFRLVRLLRFLRILLIISRGSKFLSAIADAADK  8%
5. chain 2 RGLSDLGGRVRNIGDVMEHPLVELGVSYAALLSVIVVVVEYTMQLAGEYLVRLYLVDLILVIILWADYAYRAYKSGDPAGYVKKTLYEIPALVPAGLLALIEGHLAGLGLFRLVRLLRFLRILLIISRGSKFLSAIADAADK  11%
6. chain 2 RGLSDLGGRVRNIGDVMEHPLVELGVSYAALLSVIVVVVEAAMQLSGEYLVRLYLVDLILVIILWADYAYRAYKSGDPAGYVKKTLYEIPALVPAGLLALIEGHLAGLGLFRLVRLLRFLRILLIISRGSKFLSAIADAADK  19%
7. chain 2 RGLSDLGGRVRNIGDVMEHPLVELGVSYAALLSVIVVVVEAAMALSGEYLVRLYLVDLILVIILWADYAYRAYKSGDPAGYVKKTLYEIPALVPAGLLALIEGHLAGLGLFRLVRLLRFLRILLIISRGSKFLSAIADAADK  51%
